Measured values: patent publication US20140348865A1, “[…] ON AN HIV-1 V1V2 SITE-OF-VULNERABILITY” (The United States of America, as represented by the …, priority 2011, published 2014)

Assays:
[1] = target: Env of HIV-1 strain BG 1168 (pseudovirus) (HIV-1)
[2] = target: Env of HIV-1 strain QH0515 (pseudovirus) (HIV-1)
[3] = target: Env of HIV-1 strain 3873 (pseudovirus) (HIV-1)
[4] = target: Env of HIV-1 strain 6322 (pseudovirus) (HIV-1)
[5] = target: Env of HIV-1 strain 6471 (pseudovirus) (HIV-1)
[6] = target: Env of HIV-1 strain 6631 (pseudovirus) (HIV-1)
[7] = target: Env of HIV-1 strain CNE30 (pseudovirus) (HIV-1)
[8] = target: Env of HIV-1 strain ZM135 (pseudovirus) (HIV-1)
[9] = target: 1FD6 ZM109 scaffold N130D; experiment: ELISA
[10] = target: 1FD6 ZM109 scaffold N138D; experiment: ELISA
[11] = target: 1FD6 ZM109 scaffold N160Q; experiment: ELISA
[12] = target: 1FD6 ZM109 scaffold N173D; experiment: ELISA
[13] = target: 1FD6 ZM109 scaffold N189D; experiment: ELISA
[14] = target: 1FD6 ZM109 scaffold N192D; experiment: ELISA
1FD6-ZM109 V1V2 scaffold = experiment: ELISA
[15] = target: 1FD6 CAP45 scaffold N143D/N147D/N192D; experiment: ELISA on His-captured supernatant
monomeric gp120 = experiment: ELISA or SPR against neutralization
epitope-scaffold 1VH8_C = experiment: ELISA, antibody dilution series on the scaffold after large-scale expression

monoclonal antibody PG16
neutralization IC50 (89.6.DG): > 50 µg/mL | neutralization IC50 (ADA.DG): 0.023 µg/mL | neutralization IC50 (BaL.26): 0.136 µg/mL | neutralization IC50 (Bal.01): 8 µg/mL | neutralization IC50 (CAAN.A2): 7.43 µg/mL | neutralization IC50 (DJ263.8): 0.048 µg/mL | neutralization IC50 [1]: > 50 µg/mL | neutralization IC50 [2]: > 50 µg/mL | neutralization IC50 (HXB2.DG): > 50 µg/mL | neutralization IC50 (PVO.04): 19.8 µg/mL | neutralization IC50 (SC422.8): 1.2 µg/mL | neutralization IC50 (SF162.LS): > 50 µg/mL | neutralization IC50 (SS1196.01): 0.069 µg/mL | neutralization IC50 (T257-31): 0.003 µg/mL | neutralization IC50 (T278-50): 1.13 µg/mL | neutralization IC50 (THRO.18): 0.975 µg/mL | neutralization IC50 (TRJO.58): 0.393 µg/mL | neutralization IC50 (0077_V1.C16): < 0.023 µg/mL | neutralization IC50 (3168.V4.C10): 0.037 µg/mL | neutralization IC50 (3637.V5.C3): > 50 µg/mL | neutralization IC50 (6644.V2.C33): 35.3 µg/mL | neutralization IC50 (6785.V5.C14): < 0.023 µg/mL | neutralization IC50 (96ZM651.02): > 50 µg/mL | neutralization IC50 (BR025.9): 0.009 µg/mL | neutralization IC50 (CAP210.E8): < 0.023 µg/mL | neutralization IC50 (CAP244.D3): < 0.023 µg/mL | neutralization IC50 (CAP45.G3): < 0.023 µg/mL | neutralization IC50 (CH038.12): 49 µg/mL | neutralization IC50 (CH070.1): 0.002 µg/mL | neutralization IC50 (CH117.4): 0.005 µg/mL | neutralization IC50 (CH181.12): 0.002 µg/mL | neutralization IC50 (CNE15): < 0.023 µg/mL | neutralization IC50 (CNE31): 2.51 µg/mL | neutralization IC50 (CNE40): 49 µg/mL | neutralization IC50 (CNE53): > 50 µg/mL | neutralization IC50 (CNE57): > 50 µg/mL | neutralization IC50 (CNE58): < 0.023 µg/mL | neutralization IC50 (CNE7): 0.393 µg/mL | neutralization IC50 (DU123.06): < 0.023 µg/mL | neutralization IC50 (DU151.02): < 0.023 µg/mL | neutralization IC50 (DU156.12): < 0.023 µg/mL | neutralization IC50 (DU172.17): 0.03 µg/mL | neutralization IC50 (DU422.01): < 0.023 µg/mL | neutralization IC50 [3]: 12.2 µg/mL | neutralization IC50 [4]: > 50 µg/mL | neutralization IC50 [5]: > 50 µg/mL | neutralization IC50 [6]: > 50 µg/mL | neutralization IC50 [7]: > 50 µg/mL | neutralization IC50 [8]: > 50 µg/mL | neutralization IC50 (MW965.26): 0.961 µg/mL | neutralization IC50 (SO18.18): 0.023 µg/mL | neutralization IC50 (TV1.29): 0.002 µg/mL | neutralization IC50 (TZA125.17): 0.024 µg/mL | neutralization IC50 (TZBD.02): 0.025 µg/mL | neutralization IC50 (ZA012.29): 0.631 µg/mL | neutralization IC50 (ZM106.9): 1.1 µg/mL | neutralization IC50 (ZM109.4): 4.93 µg/mL | neutralization IC50 (ZM146.7): 0.767 µg/mL | neutralization IC50 (ZM176.66): 0.002 µg/mL | EC50 [9]: 1.5 µg/mL | EC50 [10]: 4.4 µg/mL | EC50 [11]: > 50 µg/mL | EC50 [12]: > 50 µg/mL | EC50 [13]: 4 µg/mL | EC50 [14]: 2.5 µg/mL | EC50 (1FD6-ZM109 V1V2 scaffold): 3.4 µg/mL | EC50 [15]: 15.1 µg/mL | fold weaker affinity for monomeric gp120 than for the viral spike (monomeric gp120): > 100 fold

monoclonal antibody PG9
neutralization IC50 (89.6.DG): > 50 µg/mL | neutralization IC50 (ADA.DG): 0.342 µg/mL | neutralization IC50 (BaL.26): 0.034 µg/mL | neutralization IC50 (Bal.01): 0.052 µg/mL | neutralization IC50 (CAAN.A2): 13 µg/mL | neutralization IC50 (DJ263.8): 0.1 µg/mL | neutralization IC50 [1]: > 50 µg/mL | neutralization IC50 [2]: > 50 µg/mL | neutralization IC50 (HXB2.DG): 0.553 µg/mL | neutralization IC50 (PVO.04): 6.24 µg/mL | neutralization IC50 (SC422.8): 0.535 µg/mL | neutralization IC50 (SF162.LS): > 50 µg/mL | neutralization IC50 (SS1196.01): 0.293 µg/mL | neutralization IC50 (T257-31): 0.02 µg/mL | neutralization IC50 (T278-50): 0.913 µg/mL | neutralization IC50 (THRO.18): 15 µg/mL | neutralization IC50 (TRJO.58): 0.246 µg/mL | neutralization IC50 (0077_V1.C16): 0.091 µg/mL | neutralization IC50 (3168.V4.C10): 0.162 µg/mL | neutralization IC50 (3637.V5.C3): > 50 µg/mL | neutralization IC50 (6644.V2.C33): 0.033 µg/mL | neutralization IC50 (6785.V5.C14): < 0.023 µg/mL | neutralization IC50 (96ZM651.02): > 50 µg/mL | neutralization IC50 (BR025.9): 0.044 µg/mL | neutralization IC50 (CAP210.E8): 0.087 µg/mL | neutralization IC50 (CAP244.D3): 0.088 µg/mL | neutralization IC50 (CAP45.G3): < 0.023 µg/mL | neutralization IC50 (CH038.12): 0.5 µg/mL | neutralization IC50 (CH070.1): 0.006 µg/mL | neutralization IC50 (CH117.4): 0.008 µg/mL | neutralization IC50 (CH181.12): 0.008 µg/mL | neutralization IC50 (CNE15): < 0.023 µg/mL | neutralization IC50 (CNE31): 13.5 µg/mL | neutralization IC50 (CNE40): 1.16 µg/mL | neutralization IC50 (CNE53): 0.147 µg/mL | neutralization IC50 (CNE57): > 50 µg/mL | neutralization IC50 (CNE58): < 0.023 µg/mL | neutralization IC50 (CNE7): 1.66 µg/mL | neutralization IC50 (DU123.06): 0.091 µg/mL | neutralization IC50 (DU151.02): < 0.023 µg/mL | neutralization IC50 (DU156.12): < 0.023 µg/mL | neutralization IC50 (DU172.17): 0.262 µg/mL | neutralization IC50 (DU422.01): 0.303 µg/mL | neutralization IC50 [3]: > 50 µg/mL | neutralization IC50 [4]: > 50 µg/mL | neutralization IC50 [5]: > 50 µg/mL | neutralization IC50 [6]: > 50 µg/mL | neutralization IC50 [7]: > 50 µg/mL | neutralization IC50 [8]: > 50 µg/mL | neutralization IC50 (MW965.26): 1.99 µg/mL | neutralization IC50 (SO18.18): 0.061 µg/mL | neutralization IC50 (TV1.29): 0.008 µg/mL | neutralization IC50 (TZA125.17): 0.231 µg/mL | neutralization IC50 (TZBD.02): 0.266 µg/mL | neutralization IC50 (ZA012.29): 27 µg/mL | neutralization IC50 (ZM106.9): 0.639 µg/mL | neutralization IC50 (ZM109.4): 0.106 µg/mL | neutralization IC50 (ZM146.7): 0.635 µg/mL | neutralization IC50 (ZM176.66): 0.007 µg/mL | EC50 [9]: 0.4 µg/mL | EC50 [10]: 0.2 µg/mL | EC50 [11]: > 50 µg/mL | EC50 [12]: 7 µg/mL | EC50 [13]: 0.1 µg/mL | EC50 [14]: 0.1 µg/mL | EC50 (1FD6-ZM109 V1V2 scaffold): 0.1 µg/mL | EC50 [15]: 0.1 µg/mL | fold weaker affinity for monomeric gp120 than for the viral spike (monomeric gp120): > 10 fold | EC50 (read off the curve) (epitope-scaffold 1VH8_C): 0.8 µg/mL
